Key:
[1] = target: T1, Human BAFF (residues 82-285) (human, UniProt Q9Y275 82-285); assay: SPR (BIAcore 3000), BAFF immobilized, 1:1 model
T1 construct: also called BAFF82-285
Protocol: CM5 chips from BIAcore were docked according to manufacturer instructions. Then, BIAcore system was primed with 0.2 μm filtered buffer containing 10 mM Hepes pH 7.2, 150mM NaCl, 0.005% Tween20. After buffer priming, the flow cells were normalized with 70% glycerol. Each flow cell surface was activated individually in preparation for linkage of the ligand to the chip with a 1:1 mixture of EDC(N-ethyl-N′-(3-dimethyl aminopropyl)-carbodiimide hydrochloride) and NHS (N-hydroxysuccinimide). […] Generally, the ligand to be immobilized (30 μg/ml in 10 mM NaOAc, pH 5 buffer) was injected into the system at 40 μl/min. Once approximately 400 RU was generated, the flow cell was blocked with ethanolamine. […] The system was then primed again.
The ligand-receptor complex was allowed to dissociate by washing the flow cell at 30 μl/min for 600 seconds. Alternatively, if several binding measurements over the same flow cell were to be performed, the ligand-receptor complex was allowed to dissociate by washing the flow cell at 30 μl/min for 900 seconds. Sensorgrams were recorded for each binding assay. A 1:1 Langmuir binding equation was used to simultaneously fit the association and dissociation rates of the ligand-analyte interactions. kₐ, kd, KD were calculated using curve fit analysis software provided with the BiaCore instrument

[2] = target: T1, Human BAFF (residues 82-285); assay: competitive displacement ELISA on immobilized BAFF; unbiotinylated BCMA-Fc varied, tracer biotinylated miniBR3
Protocol: The plate washed with PBS and blocked for 1 hr with 200 μl of 0.2% BSA in PBS at room temperature. […] The plate washed with PBS/Tween-20 and incubated with 100 μl/well of 0.1 U/ml Streptavidin-POD (Boehringer Mannheim) for 15 minutes at room temperature. After washing the plate with PBS/0.05% Tween-20 followed by a final wash in PBS, the plate was incubated for 5 min with 100 μl/well PBS substrate solution containing 0.8 mg/ml OPD (Sigma) and 0.01% H₂O₂.

[3] = target: T1, Human BAFF (residues 82-285); assay: competitive displacement ELISA; immobilized BAFF, tracer biotinylated mini-BR3; bivalent Fc construct (avidity); competition ELISA
[4] = target: T1, Human BAFF (residues 82-285); assay: SPR (BIAcore 3000), BAFF immobilized

T1 sequence (Q9Y275 82-285): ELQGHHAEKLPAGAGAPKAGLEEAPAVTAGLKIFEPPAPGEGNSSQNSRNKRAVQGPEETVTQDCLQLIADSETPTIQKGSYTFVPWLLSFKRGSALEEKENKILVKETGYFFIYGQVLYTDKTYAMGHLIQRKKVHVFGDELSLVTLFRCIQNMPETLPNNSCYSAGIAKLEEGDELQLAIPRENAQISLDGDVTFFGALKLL

| Binder | Kd [1] [nM] | koff [1] [s⁻¹] | kon [1] [M⁻¹ s⁻¹] | IC50 (read off the curve) [2] [nM] | IC50 [3] [nM] | binding result [4] |
| --- | --- | --- | --- | --- | --- | --- |
| AGQCSQNEYFDSLLHACIPCQLRCSSNTPPLTCQRYCNASVTNSVKG (Fc fusion, not shown: a dimerising Fc or GST, also called BCMA(wt)-Fc; BCMA-Fc wt) [BCMA-Fc] | 4.9 | 0.0034 | 680000 | ~9 | 13 | – |
| MAGQCSQNEYFDSLLHACIPCQLRCSSNTPPLTCQRYCNASVTNSVKGTN (receptor, not shown: small tags and cut ends, also called BCMA(baculovirus); baculovirus BCMA) [BCMA ECD purified from baculovirus expression] | – | – | – | – | – | no binding (tested: analyte 6.25 nM to 200 nM) |

Source: patent US20070249530A1 (Genentech, published 2007)
